B1: Protein-export protein SecB (Escherichia coli (strain K12)), P0AG86 (parent)
chain: MSEQNNTEMTFQIQRIYTKDISFEAPNAPHVFQKDWQPEVKLDLDTASSQLADDVYEVVLRVTVTASLGEETAFLCEVQQGGIFSIAGIEGTQMAHCLGAYCPNILFPYARECITSMVSRGTFPQLNLAPVNFDALFMNYLQQQAGEGTEEHQDA

Variants of: B1
Conditions: with seca_ecoli secA

| effect of a mutation on the interaction | Variant |
| --- | --- |
| increasing interaction strength | MSEQNNTEMTFQIQRIYTKDISFEAPNAPHVFQKDWQPEVKLDLDTASSCLADDVYEVVLRVTVTASLGEETAFLCEVQQGGIFSIAGIEGTQMAHCLGAYCPNILFPYARECITSMVSRGTFPQLNLAPVNFDALFMNYLQQQAGEGTEEHQDA [Q50C] |
| increasing interaction strength | MSEQNNTEMTFQIQRIYTKDISFEAPNAPHVFQKDWQPEVKLCLDTASSQLADDVYEVVLRVTVTASLGEETAFLCEVQQGGIFSIAGIEGTQMAHCLGAYCPNILFPYARECITSMVSRGTFPQLNLAPVNFDALFMNYLQQQAGEGTEEHQDA [D43C] |
| increasing interaction strength | MSEQNNTEMTFQIQRIYTKDISFEAPNAPHVFQKDWQPEVKLDLDTASSQLADDVYEVVLRVTVTASLGEETAFLCEVQQGGIFSIAGIEGTQMAHCLGAYCPNILFPYARECITSMVSRGTFPQLNLAPVNFDALFMNYLQQQAGCGTEEHQDA [E147C] |
| increasing interaction strength | MSEQNNTEMTFQIQRIYTKDISFCAPNAPHVFQKDWQPEVKLDLDTASSQLADDVYEVVLRVTVTASLGEETAFLCEVQQGGIFSIAGIEGTQMAHCLGAYCPNILFPYARECITSMVSRGTFPQLNLAPVNFDALFMNYLQQQAGEGTEEHQDA [E24C] |
| increasing interaction strength | MSEQNNTEMTFQIQRIYTKDISFEAPNAPHVFQKDWQPEVKLDLDCASSQLADDVYEVVLRVTVTASLGEETAFLCEVQQGGIFSIAGIEGTQMAHCLGAYCPNILFPYARECITSMVSRGTFPQLNLAPVNFDALFMNYLQQQAGEGTEEHQDA [T46C] |
| increasing interaction strength | MSEQNNTEMTFQIQRIYTKDISFEAPNAPHVFQKDWQPEVKLDLDTASSQLADDVYEVVLRVTVTASLGEETAFLCEVQQGGIFSIAGIEGTQMAHCLGAYCPNILFPYARECITSMVSRGTFPQLNLAPVNFDALFMNYLQQQAGEGTCEHQDA [E150C] |
| increasing interaction strength | MSEQNNTEMTFQIQRIYTKDISFEAPNAPHVFQKDWQPEVKLDLDTASSQLADDVYEVVLRVTVTASLGEETAFLCEVQQGGIFSIAGIEGTQMAHCLGAYCPNILFPYARECITSMVSRGTFPQLNLAPVNFDALFMNYCQQQAGEGTEEHQDA [L141C] |
| increasing interaction strength | MSEQNNTEMTFQIQRIYTKDISFEAPNAPHVFQKDWQPEVKLDLDTASSQLADDVYEVVLRVTVTASLGEETAFLCEVQQGGIFCIAGIEGTQMAHCLGAYCPNILFPYARECITSMVSRGTFPQLNLAPVNFDALFMNYLQQQAGEGTEEHQDA [S85C] |
| increasing interaction strength | MSEQNNTEMTFQIQRIYTKDISFEAPNAPHVFQKCWQPEVKLDLDTASSQLADDVYEVVLRVTVTASLGEETAFLCEVQQGGIFSIAGIEGTQMAHCLGAYCPNILFPYARECITSMVSRGTFPQLNLAPVNFDALFMNYLQQQAGEGTEEHQDA [D35C] |
| increasing interaction strength | MSEQNNTEMTFQIQRIYTKDISFEAPNAPHVFQKDWQPEVKLDLCTASSQLADDVYEVVLRVTVTASLGEETAFLCEVQQGGIFSIAGIEGTQMAHCLGAYCPNILFPYARECITSMVSRGTFPQLNLAPVNFDALFMNYLQQQAGEGTEEHQDA [D45C] |
| increasing interaction strength | MSEQNNTEMTFQIQRIYTKDISFEAPNAPHVFQKDWQPEVKLDLDTASSQLADDVYEVVLRVTVTASLGEETAFLCEVQQGGIFSIAGIEGTQMAHCLGAYCPNILFPYARECITSMVSRGTFPQLNLAPVNFDALFMNYLQQQAGEGCEEHQDA [T149C] |
| increasing interaction strength | MSEQNNTEMTFQIQRIYTKDISFEAPNAPHVFQKDWQPEVKLDLDTASSQLADDVYEVVLRVTVTASLGEETAFLCEVQQGGIFSIAGIEGCQMAHCLGAYCPNILFPYARECITSMVSRGTFPQLNLAPVNFDALFMNYLQQQAGEGTEEHQDA [T92C] |
| increasing interaction strength | MSEQNNTEMTFQIQRIYTKDISFEAPNAPHVFQKDWQPEVKLDLDTASSQLADDVYEVVLRVTVCASLGEETAFLCEVQQGGIFSIAGIEGTQMAHCLGAYCPNILFPYARECITSMVSRGTFPQLNLAPVNFDALFMNYLQQQAGEGTEEHQDA [T65C] |
| increasing interaction strength | MSEQNNTEMTFQIQRIYTKDISFEAPNAPHVFQKDWQPEVKLDLDTASSQLADDVYEVVLRVTVTASLGEETAFLCEVQQGGIFSIAGIEGTQMAHCLGAYCPNILFPYARECITSMVSRGTFPQCNLAPVNFDALFMNYLQQQAGEGTEEHQDA [L126C] |
| increasing interaction strength | MSEQNNTEMTFQIQRIYTKDISFEAPNAPHVFQKDWQPEVKLDLDTASSQLADDVYEVVLRVTVTASLGEETAFLCEVQQGGIFSIAGIEGTQMAHCLGAYCPNILFPYARECITSMVSRGTFPQLNLAPVNFDACFMNYLQQQAGEGTEEHQDA [L136C] |
| increasing interaction strength | MSEQNNTEMTFQIQRIYTKDISFEAPNAPHVFCKDWQPEVKLDLDTASSQLADDVYEVVLRVTVTASLGEETAFLCEVQQGGIFSIAGIEGTQMAHCLGAYCPNILFPYARECITSMVSRGTFPQLNLAPVNFDALFMNYLQQQAGEGTEEHQDA [Q33C] |
| increasing interaction strength | MSEQNNTEMTFQIQRIYTKDISFEAPNAPHVFQKDWQPEVKLDLDTASSQLADDVYEVVLRVTVTASLGEETAFLCEVQQGGIFSICGIEGTQMAHCLGAYCPNILFPYARECITSMVSRGTFPQLNLAPVNFDALFMNYLQQQAGEGTEEHQDA [A87C] |
| increasing interaction strength | MSEQNNTEMTFQIQRIYTKDISFEAPNAPHVFQKDWQPEVKLDLDTASSQLADDVYEVVLRVTVTASLGEETAFLCEVQQGGIFSIAGIEGTQMAHCLGAYCPNILFPYARECITSMVSRGTFPQLNLAPVNFDALFMNYLQCQAGEGTEEHQDA [Q143C] |
| increasing interaction strength | MSEQNNTEMTFQIQRIYTKDISFEAPNAPHVFQKDWQPEVKLDLDTASSQLADDVYEVVLRVTVTASLGEETAFLCEVQQGGIFSIAGIEGTQMAHCLGAYCPNILFPYARECITSMVSRGTFPQLNLAPVNFDALFMNYLQQQAEEGTEEHQDA [G146E] |
| increasing interaction strength | MSEQNNTEMTFQICRIYTKDISFEAPNAPHVFQKDWQPEVKLDLDTASSQLADDVYEVVLRVTVTASLGEETAFLCEVQQGGIFSIAGIEGTQMAHCLGAYCPNILFPYARECITSMVSRGTFPQLNLAPVNFDALFMNYLQQQAGEGTEEHQDA [Q14C] |
| increasing interaction strength | MSEQNNTEMTFQIQRIYTKDISFEAPNAPHVFQKDWQPEVKLDLDTASSQLADDVYEVVLRVTVTASLGEETAFLCEVQQGGIFSIAGIEGTQMAHCLGAYCPNILFPYARECITSMVSRGTFPQLNLAPVNFDALFMNYLQQQAGEGTEEHQDC [A155C] |
